# US20150038408A1 (University of Washington, published 2015)
# Where two headings read alike, the source gives them in different places.
# B1: HB80.1 (Met26Thr, Asn36Lys) (designed binder)
# chain: MASTRGSGRPWDFSENLAFELALAFTNKDTPDRWAKVAQYVSGRTPEEVKKHYEILVEDIKYIESGKVPFPNYRTTGGNMKTDEKRFRNLKIRLE
# B2: HB36.1 (Asp47Ser) (designed binder)
# chain: MSNAMDGQQLNRLLLEWIGAWDPFGLGKDAYDVEAEAVLQAVYETESAFDLAMRIMWIYAFAFNRPIPFPHAQKLARRLLELKQAASSPLPLE
# What was measured:
# [1] = biological target: T1, A/South Carolina/1/1918 (H1N1) hemagglutinin ectodomain (Influenza A virus A/South …)
# [2] = biological target: T1, A/South Carolina/1/1918 (H1N1) …; remark: listed apart in the source
# [3] = biological target: T1, A/South Carolina/1/1918 (H1N1) …; remark: listed apart in the source
# [4] = biological target: T1, A/South Carolina/1/1918 (H1N1) …; remark: listed apart in the source
Binder,Kd [1],Kd [2],fold increase in binding affinity against HB36 [3],Kd [4]
B1,7.5 nM,7.5 nM,–,–
B2,5 nM,–,~40 fold,2 to 5 nM
